Common to all, as to test: cell-based or functional assay
Experiment [1] deals with non-phosphorylable Akt kinase motif … (alanine substitution) of sensor AS1A.
Experiment [2] deals with Akt kinase motif (AKM) peptide … of sensor AS1T.
In experiment [3] the target is IRS-1 phosphorylation domain (PTB peptide), 13 amino acid peptide including Y941 of insulin receptor substrate 1.

In experiment [1], “yeast phosphothreonine FHA2 binding domain (from UniProt P22216 601-664)” returned a complemented FL activity of 293T/AS1A xenografts in nude mice 6 hours after 30 mg/kg perifosine, relative to carrier control treated mice of 20 % decrease and a complemented FL activity of untreated 293T/AS1A cells relative to untreated 293T/AS1T cells of 10 fold. Moreover, in experiment [2], the FL activity of AS1T in 293T cells treated with PDGF for 30 minutes, relative to carrier control was determined as 60 % decrease; the complemented FL activity of 293T/AS1T xenografts in nude mice 6 hours after 30 mg/kg perifosine, relative to carrier control treated mice turned out to be 60 % increase; the complemented FL activity of AS1T in BT474 cells treated with the PI-3K inhibitor LY294002 for 24 hours, relative to carrier control turned out to be 1.3 fold; the maximum induction of complemented FL activity of AS1T in response to LY294002 came to 4 fold.
For “SH2 domain of PI3 Kinase (substrate recognition domain) (from UniProt P27986 330-433)”, in experiment [3], the bioluminescence signal induction, split firefly IRS-1 sensor with (EAAAR)2 linker in CHO-IR cells implanted in nude mice, after insulin (fold induction) amounted to 5 and the bioluminescence signal induction, split firefly IRS-1 sensor with (EAAAR)2 linker in CHO-IR cells implanted in nude mice, no insulin (fold induction) stood at 1.3.

For the origin of these results see patent US20070275428A1.
